Measurements taken from patent US20260007756A1, “COMPOUND AND USE THEREOF” (COHERENT BIOPHARMA (SUZHOU) LIMITED, priority 2022, published 2026).
In brackets after ≈: the same amount, converted by molar mass. Read-outs that look alike come from different tables or passages of the source.

Legend:
[1] = system: LNCaP; experiment: Expansion inhibition of tumor cells (Example 10, CCK-8); format: cell-based; conditions: Homo sapiens, LNCap (PSMA overexpression), 72 h
Experimental: Samples were serially diluted with medium (serially 5-fold diluted from 10 μM) to 9 concentrations. […] Negative and blank controls were set.
(§1) A CCK-8 developing solution was added at 10 μL/well (10% of the liquid volume in the wells). The plates were incubated at 37° C. for a proper time (the OD value was controlled within the range of 1.0-2.5 as possible). The plate covers were removed, and the 96-well plates were loaded on a microplate reader (Molecular Devices SpectraMax iD5) to read the measurement at 450 nm.

[2] = Solubility study in PBS; format: physicochemical; conditions: aqueous buffer, thermodynamic from solid; PBS (pH 7.2 to 7.4); read-out: Solubility, concentration
Experimental: The mixture was vortexed for 2 min until the solid was dissolved. The solubility was calculated as: C=m/V, C: concentration, m: sample weight, V: PBS total volume.

[3] = Plasma stability study 1; format: in vitro ADME; conditions: mouse plasma, 37° C.
Experimental: Procedures: The conjugate compounds were dissolved in acetonitrile-water (1:1) or acetonitrile-water (1:1, containing 0.1% TFA) to prepare 1 mg/mL stock solutions; 10 μL of the 1 mg/mL stock solution was added to 90 μL of plasma, and the mixture was gently mixed well. The plasma drug samples were shaken and incubated in a 37° C. thermostat for 0, 0.5, 1, 2, 4, 6, or 24 h; at the time points, the samples were taken out and 300 μL of methanol solution (containing 10 ng/ml of terfenadine) was added for protein precipitation; the mixture was centrifuged (12 min, 4° C., 12000 rpm) and the supernatant was collected, and preserved in a −80° C. refrigerator; after collection, the samples were loaded for LC-MS analysis.

[4] = system: LNCaP; conditions: LNCap (PSMA overexpression), 72 h, CCK-8
Experimental: (§2) Major reagents: 1640 folic acid-free medium, fetal bovine serum, penicillin-streptomycin solution, L-glutamine, and CCK8.
(§3) Cells were prepared in advance, trypsinized, collected, counted, diluted to 2×10^4 cells/mL in a complete cell culture medium, and plated in 96-well plates. The diluted cell suspension was added at 100 μL/well, and negative and blank control wells were set on each plate. The 96-well plates with the added cells were incubated overnight at 37° C. in a 5% CO2 incubator.
(§4) Samples were serially diluted with medium (serially 5-fold diluted from 10 μM) to 9 concentrations. The medium in the plates was discarded, and the drug solutions were added at 100 μL per well to a 96-well plate in triplicate. Negative and blank controls were set. The plates were incubated at 37° C. for 72 h in a 5% CO2 incubator.
as §1
(§5) Four-parameter curves were fitted using GraphPad Prism 8.0.2 to give IC50 values.

[5] = system: MDA-MB-231-FOLR1; conditions: MDA-MB-231-FOLR1, 72 h, CCK-8
Experimental: as §2, §3, §4, §1, §5

[6] = system: 293T-PSMA; conditions: 72 h, CCK-8
Experimental: as §2, §3, §4, §1, §5

[7] = system: 22RV1; conditions: 22RV1 (PSMA overexpression), 72 h, CCK-8
Experimental: as §2, §3, §4, §1, §5

[8] = system: C4-2; conditions: C4-2 (PSMA overexpression), 72 h, CCK-8
Experimental: as §2, §3, §4, §1, §5

[9] = system: MDA-MB-231-PSMA; conditions: 72 h, CCK-8
Experimental: as §2, §3, §4, §1, §5

[10] = target: cathepsin B-human liver (Homo sapiens, UniProt P07858); experiment: Cathepsin B cleavage study (HPLC); format: in vitro ADME; set-up: cathepsin B-human liver (source: Sigma); purchased Sigma; host or cells: human liver (tissue-derived, as the product name says); conditions: 37° C.
Experimental: Procedures: The conjugate compounds were dissolved in acetonitrile-water (1:1, containing 0.1% TFA) to prepare 1 mg/mL stock solutions; 30 μL of the 1 mg/mL stock solution was added to 570 μL of 50 mM NaOAc (containing 1 mM EDTA and 10 mM cysteine), and the mixture was mixed well; 7 μL of cathepsin B (0.05 U/μL) was added, and the mixture was gently mixed evenly; the reaction system was transferred into a 37° C. thermostat for 0, 1, 2, 4, or 8 h of incubation; samples were taken at each time point for HPLC analysis.

[11] = system: human prostate cancer 22RV1 cell subcutaneous xenograft tumor; experiment: Pharmacodynamic assessment, 22RV1 xenograft model; format: in vivo
Excerpt: Objective: Pre-clinical pharmacodynamic study of compounds for treating BALB/c nude mouse model with 22RV1 cell subcutaneous xenograft tumor (overexpressing PSMA).
Procedures: 22RV1 tumor mass was grafted subcutaneously at the right back of the mice, and the mice were randomized after the mean tumor volume was 150 mm^3. After administration, the animals were monitored daily for health conditions and death, and the routine examinations included observation of the effect on tumor growth and the effect of the treatment on the daily performance of the animals, such as behavioral activities, food and water intake, weight changes (measured once every other day), appearance, or other abnormal conditions. Whether the tumor growth was inhibited or delayed or the tumor was cured was also observed. The tumor volume was measured periodically. The tumor volume was calculated using the following formula: V=1/2×(a×b^2), where a and b denote the long diameter and short diameter of the tumor, respectively.

[12] = system: human prostate cancer C4-2 cell subcutaneous xenograft tumor; experiment: Pharmacodynamic assessment, C4-2 xenograft model; format: in vivo, NCG mouse; conditions: 12.5 mg/kg i.v biw×3, day 23 after grouping
Excerpt: Objective: Pre-clinical assessment of the efficacy of compounds for treating NCG mouse model with C4-2 cell subcutaneous xenograft tumor (overexpressing PSMA).
Procedures: C4-2 cells were subcutaneously grafted at the right back of the mice, and the mice were randomized when the mean tumor volume reached 100-150 mm^3. After the administration, the routine monitoring included the effect on tumor growth and the effect of treatment on the normal behavior of the animals, specifically the activity, food and water intake, weight gain or loss, the eyes, the hair, and other abnormal conditions. Clinical symptoms observed during the study were recorded in the raw data. After the administration was started, the body weight and tumor size of the mice were measured periodically. The tumor volume was calculated using the following formula: V=1/2×(a×b^2), where a and b denote the long diameter and short diameter of the tumor, respectively.

[13] = 12.5 mg/kg iv biw×3, day 31 after grouping

## Cc1ncsc1-c1ccc(CNC(=O)C2CC(O)CN2C(=O)C(NC(=O)COCC(=O)NC2(C(=O)NCCCn3cc(-c4ccc(OC(F)(F)F)cc4)c4cc(CN5CCN(Cc6c(Cl)cccc6Cl)CC5)ccc43)CCNCC2)C(C)(C)C)cc1 (stereo not shown) [CR202CC]
[1]
  IC50: 0.3 nM

## CC[C@@H]1C(=O)N(C)c2cnc(Nc3ccc(-c4cn(C5CCC(N(CCOCCC#Cc6cccc7c6CN(C6CCC(=O)NC6=O)C7=O)C(=O)OCc6ccc(NC(=O)[C@H](CCCNC(N)=O)NC(=O)[C@H](Cc7ccccc7)NC(=O)CCCCCN7C(=O)CC(SC[C@H](NC(=O)[C@H](CCCCN)NC(=O)[C@H](CC(=O)O)NC(=O)[C@H](CC(=O)O)NC(=O)Cc8ccc(CNC(=O)NCCCC[C@H](NC(=O)N[C@@H](CCC(=O)O)C(=O)O)C(=O)O)cc8)C(=O)N[C@@H](CCCCNC(=O)CC[C@H](NC(=O)c8ccc(NCc9cnc%10[nH]c(N)nc(=O)c%10n9)cc8)C(=O)O)C(N)=O)C7=O)cc6)CC5)nn4)cc3OC)nc2N1C1CCCC1 (stereo partly shown) [CR20293]
[2]
  solubility at 2 min: 20.6 mg/mL (≈ 6.75 mM)
[3]; 0 h
  CR20274 release rate of compounds in plasma stability study: 0.00%
  Principal component residue of compounds in plasma stability study: 83.13%
[3]; 0.5 h
  CR20274 release rate of compounds in plasma stability study: 0.17%
[3]; 0.5 h, read-out: Principal component residue of compounds in plasma stability study
  remaining at 0.5 h, 100 μg/mL: 75.6%
[3]; 1 h
  CR20274 release rate of compounds in plasma stability study: 0.32%
[3]; 1 h, read-out: Principal component residue of compounds in plasma stability study
  remaining at 1 h, 100 μg/mL: 75.8%
[3]; 2 h
  CR20274 release rate of compounds in plasma stability study: 0.52%
[3]; 2 h, read-out: Principal component residue of compounds in plasma stability study
  remaining at 2 h, 100 μg/mL: 67.8%
[3]; 4 h
  CR20274 release rate of compounds in plasma stability study: 0.67%
[3]; 4 h, read-out: Principal component residue of compounds in plasma stability study
  remaining at 4 h, 100 μg/mL: 69.8%
[3]; 6 h
  CR20274 release rate of compounds in plasma stability study: 0.95%
[3]; 6 h, read-out: Principal component residue of compounds in plasma stability study
  remaining at 6 h, 100 μg/mL: 70.5%
[3]; 24 h
  CR20274 release rate of compounds in plasma stability study: 3.38%
[3]; 24 h, read-out: Principal component residue of compounds in plasma stability study
  remaining at 24 h, 100 μg/mL: 45.4%
[4]
  IC50: 37.9 nM
[5]
  IC50: 94.2 nM
[6]
  IC50: 3270 nM
[7]
  IC50: 16.4 nM
[8]
  IC50: 78 nM
[9]
  IC50: 70.6 nM
[10]; 0 h
  CR20274 release rate of conjugate compounds after cleavage: 0%
  Principal component residue of conjugate compounds after cleavage: 100%
[10]; 1 h
  CR20274 release rate of conjugate compounds after cleavage: 17%
  Principal component residue of conjugate compounds after cleavage: 76%
[10]; 2 h
  CR20274 release rate of conjugate compounds after cleavage: 38%
  Principal component residue of conjugate compounds after cleavage: 46%
[10]; 4 h
  CR20274 release rate of conjugate compounds after cleavage: 59%
  Principal component residue of conjugate compounds after cleavage: 27%
[10]; 8 h
  CR20274 release rate of conjugate compounds after cleavage: 64%
  Principal component residue of conjugate compounds after cleavage: 7%
[11]; [13]
  Mean tumor volume: 46.32 mm^3
  TGI: 97.51%
[11]; tumor-bearing BALB/c nude mice, during the study
  Tolerability (body weight, death): well tolerated
[12]
  Mean tumor volume: 778.70 mm^3
  TGI: 55.47%
